Test results as given in US20180237497A1 (CANCER RESEARCH TECHNOLOGY, published 2018).

What was measured:
[1] = molecular target: T1, human IGF2^1-67 (mature insulin-like growth factor 2) (human, UniProt P01344 25-91, biotinylated (site not stated) where immobilised on the chip (Tables 1-4)); experiment: SPR steady state, biotin-IGF2 on chip, pH 7.4
T1 construct: mature; also called mature IGF2; biotinylated IGF2
Text: (§1) Surface plasmon resonance (SPR) binding analysis of recombinant M6P/IGF2R domain 11 mutants interaction with IGF2. Kon indicates association (on) rate; koff, dissociation (off) rate; RU, response units. Binding to IGF2 assessed with BIAcore T200 using purified biotinylated IGF2 and IGF1 on a streptavidin biosensor chip. Recombinant proteins were expressed either in E. coli and/or P. pastoris. All the mutants in the FG and CD loops are on the domain 11^AB5 background for the AB loop unless otherwise stated. All experiments were carried out at 25° C. in HBS-EP buffer (pH 7.4), were repeated 2-5 times on two independent BIAcore chips. nd=not determined. Data for KD expressed as mean of each experiment, and means of kon and koff are shown.
(§2) Final kinetic analysis of mutants by SPR was conducted using a Biacore T200 biosensor at 25° C. in either HBS-EP (10 mM HEPES pH 7.4, 150 mM NaCl, 3 mM EDTA, and 0.005% (v/v) surfactant P20) or MES-EP (20 mM MES pH 6.5, 150 mM NaCl, 3 mM EDTA, and 0.005% (v/v) surfactant P20) at a flow-rate of 40 μL min⁻¹. […] For the analysis of the Fc-domain 11^AB5 interaction, approximately 50 RU of a biotinylated IGF2:biotinylated ubiquitin mixture (1:8 proportion) was immobilized on the CM5-streptavidin chip. This interaction was also analysed by immobilizing the Fc-domain 11^AB5 and Fc-domain 11^AB5-RHH (or Fc-domain 11^I1572A as control) by Human Antibody Capture (monoclonal mouse anti-human IgG antibody immobilised on a CM5 chip by amine coupling, GE Healthcare) with and without human IgG1 Fc fragment (Bethyl Laboratories, UK) in the control flow cell. […] T200 BiaEvaluation software (GE Healthcare) was used to fit the resulting curves according to a 1:1 binding model. Steady state affinities were determined using the kinetic data, taking the response average at 5 seconds before injection end and for 5 seconds average.

[2] = molecular target: T1, human IGF2^1-67 (mature insulin-like …); experiment: SPR kinetic, biotin-IGF2 on chip, pH 7.4
Text: as §1, §2

T1 sequence (P01344 25-91): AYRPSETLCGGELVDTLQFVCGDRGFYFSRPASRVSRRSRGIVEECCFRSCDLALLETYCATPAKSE

Kd [1] [nM]	Kd [2] [nM]	koff [2] [s⁻¹]	kon [2] [M⁻¹ s⁻¹]	Binder
12.1	8.69	0.0183	2.14e+06	domain 11^AB5 G1603A (receptor, See m5) MKSNEHDDCQVTNPSTGHLFDLSSLSGRAGFTAAYAKGWGVYMSICGENENCPPGVGACFGQTRISVGKANKRLRYVDQVLQLVYKDGSPCPSKSALSYKSVISFVCRPEAGPTNRPMLISLDKQTCTLFFSWHTPLACEQATECSV
13.5	12.3	0.0867	7.18e+06	domain 11^AB5 K1631R (receptor, See m5; HI loop mutant) MKSNEHDDCQVTNPSTGHLFDLSSLSGRAGFTAAYAKGWGVYMSICGENENCPPGVGACFGQTRISVGKANKRLRYVDQVLQLVYKDGSPCPSKSGLSYKSVISFVCRPEAGPTNRPMLISLDRQTCTLFFSWHTPLACEQATECSV
> 200	> 200	> 0.2	–	domain 11^AB5 P1599G (receptor, See m5; the asterisk is not explained) MKSNEHDDCQVTNPSTGHLFDLSSLSGRAGFTAAYAKGWGVYMSICGENENCPPGVGACFGQTRISVGKANKRLRYVDQVLQLVYKDGSPCGSKSGLSYKSVISFVCRPEAGPTNRPMLISLDKQTCTLFFSWHTPLACEQATECSV
12.2	2.94	0.0034	1.18e+06	domain 11^AB5 K1631W (receptor, See m5; HI loop mutant) MKSNEHDDCQVTNPSTGHLFDLSSLSGRAGFTAAYAKGWGVYMSICGENENCPPGVGACFGQTRISVGKANKRLRYVDQVLQLVYKDGSPCPSKSGLSYKSVISFVCRPEAGPTNRPMLISLDWQTCTLFFSWHTPLACEQATECSV
> 200	> 200	> 0.2	–	domain 11^AB5 S1600Y (receptor, See m5) MKSNEHDDCQVTNPSTGHLFDLSSLSGRAGFTAAYAKGWGVYMSICGENENCPPGVGACFGQTRISVGKANKRLRYVDQVLQLVYKDGSPCPYKSGLSYKSVISFVCRPEAGPTNRPMLISLDKQTCTLFFSWHTPLACEQATECSV
52.4	39.8	0.0202	520000	domain 11^AB5 Q1632E (receptor, See m5; HI loop mutant) MKSNEHDDCQVTNPSTGHLFDLSSLSGRAGFTAAYAKGWGVYMSICGENENCPPGVGACFGQTRISVGKANKRLRYVDQVLQLVYKDGSPCPSKSGLSYKSVISFVCRPEAGPTNRPMLISLDKETCTLFFSWHTPLACEQATECSV
> 100	> 100	> 0.1	–	domain 11^AB5 P1599V (receptor, See m5; the asterisk is not explained) MKSNEHDDCQVTNPSTGHLFDLSSLSGRAGFTAAYAKGWGVYMSICGENENCPPGVGACFGQTRISVGKANKRLRYVDQVLQLVYKDGSPCVSKSGLSYKSVISFVCRPEAGPTNRPMLISLDKQTCTLFFSWHTPLACEQATECSV
29.7	24.4	0.091	3.95e+06	domain 11^AB5 S1600N (receptor, See m5) MKSNEHDDCQVTNPSTGHLFDLSSLSGRAGFTAAYAKGWGVYMSICGENENCPPGVGACFGQTRISVGKANKRLRYVDQVLQLVYKDGSPCPNKSGLSYKSVISFVCRPEAGPTNRPMLISLDKQTCTLFFSWHTPLACEQATECSV
60	48.3	0.0397	790000	domain 11^AB5 L1604A (receptor, See m5) MKSNEHDDCQVTNPSTGHLFDLSSLSGRAGFTAAYAKGWGVYMSICGENENCPPGVGACFGQTRISVGKANKRLRYVDQVLQLVYKDGSPCPSKSGASYKSVISFVCRPEAGPTNRPMLISLDKQTCTLFFSWHTPLACEQATECSV
19.9	16.5	0.025	1.57e+06	domain 11^AB5 S1602A (receptor, See m5) MKSNEHDDCQVTNPSTGHLFDLSSLSGRAGFTAAYAKGWGVYMSICGENENCPPGVGACFGQTRISVGKANKRLRYVDQVLQLVYKDGSPCPSKAGLSYKSVISFVCRPEAGPTNRPMLISLDKQTCTLFFSWHTPLACEQATECSV
> 70	> 70	> 0.1	–	domain 11^AB5 P1599A (receptor, See m5; the asterisk is not explained) MKSNEHDDCQVTNPSTGHLFDLSSLSGRAGFTAAYAKGWGVYMSICGENENCPPGVGACFGQTRISVGKANKRLRYVDQVLQLVYKDGSPCASKSGLSYKSVISFVCRPEAGPTNRPMLISLDKQTCTLFFSWHTPLACEQATECSV
9.34	5.75	0.0175	3.18e+06	domain 11^AB5 Q1632L (receptor, See m5; HI loop mutant) MKSNEHDDCQVTNPSTGHLFDLSSLSGRAGFTAAYAKGWGVYMSICGENENCPPGVGACFGQTRISVGKANKRLRYVDQVLQLVYKDGSPCPSKSGLSYKSVISFVCRPEAGPTNRPMLISLDKLTCTLFFSWHTPLACEQATECSV
84.7	89.1	0.213	2.39e+06	domain 11^AB5 S1600A (receptor, See m5) MKSNEHDDCQVTNPSTGHLFDLSSLSGRAGFTAAYAKGWGVYMSICGENENCPPGVGACFGQTRISVGKANKRLRYVDQVLQLVYKDGSPCPAKSGLSYKSVISFVCRPEAGPTNRPMLISLDKQTCTLFFSWHTPLACEQATECSV
> 200	> 200	> 0.2	–	domain 11^AB5 S1600V (receptor, See m5) MKSNEHDDCQVTNPSTGHLFDLSSLSGRAGFTAAYAKGWGVYMSICGENENCPPGVGACFGQTRISVGKANKRLRYVDQVLQLVYKDGSPCPVKSGLSYKSVISFVCRPEAGPTNRPMLISLDKQTCTLFFSWHTPLACEQATECSV
7.93	4.75	0.0112	2.38e+06	domain 11^AB5 S1602N (receptor, See m5) MKSNEHDDCQVTNPSTGHLFDLSSLSGRAGFTAAYAKGWGVYMSICGENENCPPGVGACFGQTRISVGKANKRLRYVDQVLQLVYKDGSPCPSKNGLSYKSVISFVCRPEAGPTNRPMLISLDKQTCTLFFSWHTPLACEQATECSV
8.51	6.8	0.022	3.26e+06	domain 11^AB5 K1601A (receptor, See m5) MKSNEHDDCQVTNPSTGHLFDLSSLSGRAGFTAAYAKGWGVYMSICGENENCPPGVGACFGQTRISVGKANKRLRYVDQVLQLVYKDGSPCPSASGLSYKSVISFVCRPEAGPTNRPMLISLDKQTCTLFFSWHTPLACEQATECSV
> 200	> 200	–	–	domain 11^AB5 K1631A (receptor, See m5; HI loop mutant) MKSNEHDDCQVTNPSTGHLFDLSSLSGRAGFTAAYAKGWGVYMSICGENENCPPGVGACFGQTRISVGKANKRLRYVDQVLQLVYKDGSPCPSKSGLSYKSVISFVCRPEAGPTNRPMLISLDAQTCTLFFSWHTPLACEQATECSV
> 200	> 200	> 0.2	–	domain 11^AB5 S1600L (receptor, See m5) MKSNEHDDCQVTNPSTGHLFDLSSLSGRAGFTAAYAKGWGVYMSICGENENCPPGVGACFGQTRISVGKANKRLRYVDQVLQLVYKDGSPCPLKSGLSYKSVISFVCRPEAGPTNRPMLISLDKQTCTLFFSWHTPLACEQATECSV
> 100	> 100	> 0.1	–	domain 11^AB5 K1631E (receptor, See m5; HI loop mutant) MKSNEHDDCQVTNPSTGHLFDLSSLSGRAGFTAAYAKGWGVYMSICGENENCPPGVGACFGQTRISVGKANKRLRYVDQVLQLVYKDGSPCPSKSGLSYKSVISFVCRPEAGPTNRPMLISLDEQTCTLFFSWHTPLACEQATECSV
12.8	11.1	0.0212	1.96e+06	domain 11^AB5 Q1632K (receptor, See m5; HI loop mutant) MKSNEHDDCQVTNPSTGHLFDLSSLSGRAGFTAAYAKGWGVYMSICGENENCPPGVGACFGQTRISVGKANKRLRYVDQVLQLVYKDGSPCPSKSGLSYKSVISFVCRPEAGPTNRPMLISLDKKTCTLFFSWHTPLACEQATECSV
4.84	3.76	0.0167	4.5e+06	domain 11^AB5 Q1632A (receptor, See m5; HI loop mutant) MKSNEHDDCQVTNPSTGHLFDLSSLSGRAGFTAAYAKGWGVYMSICGENENCPPGVGACFGQTRISVGKANKRLRYVDQVLQLVYKDGSPCPSKSGLSYKSVISFVCRPEAGPTNRPMLISLDKATCTLFFSWHTPLACEQATECSV
